Measured values from paper PMC4055580, “Simplagrin, a Platelet Aggregation Inhibitor from Simulium nigrimanum Salivary Glands Specifically Binds to the Von Willebrand Factor Receptor in Collagen and Inhibits Carotid Thrombus Formation In Vivo” (PLoS Neglected Tropical Diseases, 2014).

Legend:
[1] = molecular target: Simplagrin (Simulium platelet aggregation inhibitor), recombinant (Simulium nigrimanum) (UniProt D1FQ14); test: SPR; steady state: Simplagrin immobilised on CM5 (500 RU), soluble collagens as analyte, HBS-P; KD as the analyte concentration at 50% of saturation
[2] = molecular target: Simplagrin (Simulium platelet aggregation inhibitor), recombinant (Simulium nigrimanum) (UniProt D1FQ14); test: SPR; kinetics: Simplagrin as ligand, RGQOGVMGF peptide as analyte (1-500 nM), 30 µL/min for 180 s, dissociation 600 s, global 1:1 model
[3] = molecular target: Soluble human collagen type I (human) (UniProt P02452); test: SPR; Simplagrin-CT with collagen type I and III; who was immobilised is not told in what was shown
Soluble human collagen type I (human), sequence (P02452 162-1218, chain 1 of 2): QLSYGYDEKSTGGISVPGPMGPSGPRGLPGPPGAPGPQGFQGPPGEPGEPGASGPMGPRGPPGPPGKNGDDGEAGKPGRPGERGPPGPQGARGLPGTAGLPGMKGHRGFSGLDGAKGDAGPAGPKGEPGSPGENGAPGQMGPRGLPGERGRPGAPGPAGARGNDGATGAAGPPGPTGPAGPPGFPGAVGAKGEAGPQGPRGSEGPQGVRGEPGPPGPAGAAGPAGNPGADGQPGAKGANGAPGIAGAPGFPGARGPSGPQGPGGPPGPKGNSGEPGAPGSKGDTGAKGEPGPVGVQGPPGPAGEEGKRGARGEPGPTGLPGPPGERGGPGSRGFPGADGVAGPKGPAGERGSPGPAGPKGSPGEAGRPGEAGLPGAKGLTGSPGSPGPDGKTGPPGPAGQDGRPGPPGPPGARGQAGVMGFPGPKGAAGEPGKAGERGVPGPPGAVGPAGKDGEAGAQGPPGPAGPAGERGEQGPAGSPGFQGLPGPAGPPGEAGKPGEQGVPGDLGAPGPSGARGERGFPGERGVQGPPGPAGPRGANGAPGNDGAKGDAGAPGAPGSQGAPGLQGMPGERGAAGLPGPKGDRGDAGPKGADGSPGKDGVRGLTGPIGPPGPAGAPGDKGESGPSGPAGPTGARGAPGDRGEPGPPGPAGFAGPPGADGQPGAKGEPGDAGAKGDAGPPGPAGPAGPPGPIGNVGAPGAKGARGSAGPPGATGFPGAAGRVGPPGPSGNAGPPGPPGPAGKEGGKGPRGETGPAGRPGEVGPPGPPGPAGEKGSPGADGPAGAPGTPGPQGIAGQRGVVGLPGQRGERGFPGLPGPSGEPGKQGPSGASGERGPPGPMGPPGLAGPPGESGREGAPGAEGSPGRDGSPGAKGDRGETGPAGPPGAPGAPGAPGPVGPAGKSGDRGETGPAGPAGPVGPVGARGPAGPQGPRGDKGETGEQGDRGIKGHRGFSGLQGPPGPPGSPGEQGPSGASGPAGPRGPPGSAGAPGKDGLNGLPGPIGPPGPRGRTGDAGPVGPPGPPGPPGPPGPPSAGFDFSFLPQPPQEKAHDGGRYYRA
Soluble human collagen type I (human), sequence (P08123 80-1119, chain 2 of 2, further chain): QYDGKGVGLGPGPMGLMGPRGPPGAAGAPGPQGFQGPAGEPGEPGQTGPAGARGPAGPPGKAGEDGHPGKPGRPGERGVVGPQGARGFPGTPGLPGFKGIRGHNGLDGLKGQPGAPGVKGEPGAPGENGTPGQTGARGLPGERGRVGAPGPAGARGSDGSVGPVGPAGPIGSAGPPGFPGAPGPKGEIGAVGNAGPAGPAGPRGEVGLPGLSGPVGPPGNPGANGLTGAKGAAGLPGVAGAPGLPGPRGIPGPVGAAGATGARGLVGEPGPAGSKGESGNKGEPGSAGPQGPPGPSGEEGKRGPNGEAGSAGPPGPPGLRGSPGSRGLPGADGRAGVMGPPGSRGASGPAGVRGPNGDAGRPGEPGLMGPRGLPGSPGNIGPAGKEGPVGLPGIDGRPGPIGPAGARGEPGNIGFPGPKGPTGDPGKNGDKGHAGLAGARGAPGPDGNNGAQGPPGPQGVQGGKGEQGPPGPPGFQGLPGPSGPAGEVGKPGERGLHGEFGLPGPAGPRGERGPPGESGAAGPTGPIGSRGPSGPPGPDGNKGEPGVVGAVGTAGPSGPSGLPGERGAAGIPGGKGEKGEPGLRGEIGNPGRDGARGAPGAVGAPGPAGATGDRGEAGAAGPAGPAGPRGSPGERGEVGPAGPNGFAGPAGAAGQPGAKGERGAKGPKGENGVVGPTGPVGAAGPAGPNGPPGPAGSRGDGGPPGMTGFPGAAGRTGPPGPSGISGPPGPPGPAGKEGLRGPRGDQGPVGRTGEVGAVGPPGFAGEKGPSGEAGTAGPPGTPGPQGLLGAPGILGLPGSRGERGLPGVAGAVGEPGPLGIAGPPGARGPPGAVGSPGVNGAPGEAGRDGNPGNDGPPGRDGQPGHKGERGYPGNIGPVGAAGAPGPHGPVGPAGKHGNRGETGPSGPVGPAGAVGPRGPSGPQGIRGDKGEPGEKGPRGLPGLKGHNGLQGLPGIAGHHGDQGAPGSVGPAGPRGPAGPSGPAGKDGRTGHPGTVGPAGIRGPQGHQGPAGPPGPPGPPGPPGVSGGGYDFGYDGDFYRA

[4] = molecular target: Soluble human collagen type III (human) (UniProt P02461); test: as above
[5] = molecular target: T1, Soluble human collagen type I (human, UniProt P02452 162-1218; P08123 80-1119); test: SPR; thermodynamics: Simplagrin (10-500 nM) over immobilised collagen type I or III at 15, 20, 25, 30, 35 and 40°C; 1:1 model, van't Hoff equation; conditions: both partners purified
T1 construct: also called Collagen-I; Col-I; source: bought: R&D Systems
T1 sequence (P02452 162-1218, chain 1 of 2): as the sequence (P02452 162-1218, chain 1 of 2) above
T1 sequence (P08123 80-1119, chain 2 of 2): as the sequence (P08123 80-1119, chain 2 of 2, further chain) above

[6] = molecular target: T2, Soluble human collagen type III (human, UniProt P02461 154-1221); test: as above; conditions: both partners purified
T2 construct: also called Collagen-III; collagen III; source: bought: R&D Systems
T2 sequence (looked up): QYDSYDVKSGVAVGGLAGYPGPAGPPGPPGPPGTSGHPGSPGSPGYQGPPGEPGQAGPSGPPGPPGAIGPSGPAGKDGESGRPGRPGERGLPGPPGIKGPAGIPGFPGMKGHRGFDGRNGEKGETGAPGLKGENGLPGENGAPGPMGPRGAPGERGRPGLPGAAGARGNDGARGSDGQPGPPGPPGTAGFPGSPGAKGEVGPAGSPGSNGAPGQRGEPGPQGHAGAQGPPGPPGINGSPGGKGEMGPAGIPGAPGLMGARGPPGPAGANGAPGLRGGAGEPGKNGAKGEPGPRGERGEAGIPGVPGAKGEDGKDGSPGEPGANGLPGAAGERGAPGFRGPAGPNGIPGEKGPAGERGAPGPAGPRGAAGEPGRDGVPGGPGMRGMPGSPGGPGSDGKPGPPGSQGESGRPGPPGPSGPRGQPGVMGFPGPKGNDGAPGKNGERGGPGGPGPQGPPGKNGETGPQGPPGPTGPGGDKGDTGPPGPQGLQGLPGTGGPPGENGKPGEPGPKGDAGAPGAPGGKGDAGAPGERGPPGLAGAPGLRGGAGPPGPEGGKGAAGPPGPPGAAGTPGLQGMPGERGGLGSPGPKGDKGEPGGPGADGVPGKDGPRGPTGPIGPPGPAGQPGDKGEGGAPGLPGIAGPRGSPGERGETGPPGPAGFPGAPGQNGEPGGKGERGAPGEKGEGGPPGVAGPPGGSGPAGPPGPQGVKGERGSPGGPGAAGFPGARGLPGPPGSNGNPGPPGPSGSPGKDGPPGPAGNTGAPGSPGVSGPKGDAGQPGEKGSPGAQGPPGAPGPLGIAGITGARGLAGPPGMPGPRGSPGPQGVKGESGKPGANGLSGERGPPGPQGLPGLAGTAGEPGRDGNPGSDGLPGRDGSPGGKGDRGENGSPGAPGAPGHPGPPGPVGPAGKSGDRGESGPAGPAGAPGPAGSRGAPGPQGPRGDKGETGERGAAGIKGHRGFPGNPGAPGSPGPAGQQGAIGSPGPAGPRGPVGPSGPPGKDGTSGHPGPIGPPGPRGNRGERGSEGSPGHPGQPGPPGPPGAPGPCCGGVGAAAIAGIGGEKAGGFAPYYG

[7] = molecular target: T2, Soluble human collagen type III; test: ELISA; blocking: collagen type III (0.3 µg/mL) coated, Simplagrin 0.0015-1.5 µM for one hour at 37°C, washed, then 3 nM vWF; detected with anti-human vWF; conditions: both partners purified
[8] = molecular target: T2, Soluble human collagen type III; test: SPR; kinetics: collagen type I or III immobilised on CM5 by amine coupling, Simplagrin as analyte (0.015-1 µM), 180 s contact at 30 µL/min, 25°C, HBS-P, 1:1 Langmuir model; conditions: both partners purified
[9] = molecular target: T1, Soluble human collagen type I; test: as above; conditions: both partners purified
[10] = molecular target: Soluble human collagen type IV (human, UniProt P02462 173-1669; P08572 184-1712); test: SPR; steady state: Simplagrin immobilised on CM5 (500 RU), soluble collagens as analyte, HBS-P; KD as the analyte concentration at 50% of saturation; conditions: both partners purified
[11] = molecular target: Soluble human collagen type VI (human, UniProt P12109 20-1028; P12110 21-1019; P12111 26-3177); test: as above; conditions: both partners purified
[12] = molecular target: T1, Soluble human collagen type I; test: as above; conditions: both partners purified
[13] = molecular target: T2, Soluble human collagen type III; test: as above; conditions: both partners purified

Q: Which Kd [1] does the source give for “Collagen type I from rat tail (from UniProt P02454 23-1207; P02466 86-1125) (natural protein)” here?
A: 12.4 nM

Q: What does the source list for “RGQOGVMGF collagen-derived peptide (vWF-recognition peptide)”?
A: Kd [2]: 11.1 nM; koff [2]: 0.00048 s⁻¹; kon [2]: 727000 M⁻¹ s⁻¹

Q: “Simplagrin carboxy-terminus domain (Simplagrin-CT) (domain or fragment)” was tested. Which Kd [3] did it give?
A: 285 nM

Q: What about the Kd [4] of the same molecule?
A: 162 nM

Q: Which Kd [1] does the source give for “Soluble human collagen type V (from UniProt P20908 38-1605; P05997 27-1229) (natural protein)” here?
A: 10.8 nM

B1: Simplagrin (Simulium platelet aggregation inhibitor), recombinant (natural protein, Simulium nigrimanum, UniProt D1FQ14 21-286, looked up)
chain: SPIPDEESEETEDAEQEEDAEEEEHAEEEAQEDGDQTQDTDQESDDGQEETANQGSDEQQEEDGSHGTDETDDEAAGSRTEDVESGGDEQNDGEENGSQENGEEVTGGEDDSHGAQDSEGGEEDAAAQEAGGKKSKGKGAKGGQGSNRAGSSSGGEESAAHTYQEVMRILNGIKINAKEPLKSRLVNGLQYLKVDTINRVENIQKFSRIEHCFGNLDHIVQLYAGDAVERNDYCKGTCIDMVSNEFRGQMEELTSRLYPCLQGGYY
notes: Simplagrin (cluster Sim-50), salivary gland protein of Simulium nigrimanum; precursor of 286 aa with a predicted signal peptide of 20 aa; the construct holds the mature protein and a 6X-His tag before the stop codon; Synthetic codon optimised gene in the VR2001 TOPO vector; also called Sim-50; recombinant Simplagrin; source: FreeStyle293 F (HEK293) cells, transfected, secreted; purified (Ni2+ …)
Q: How did the dH [5] turn out when B1 was run?
A: -4.54 kcal/mol

Q: And the dH [6]?
A: -12.9 kcal/mol

Q: What about the IC50 [7] of the same molecule?
A: ~100 nM

Q: What about the Kd [8] of the same molecule?
A: 2.1 nM

Q: What about the koff [8] of the same molecule?
A: 0.00031 s⁻¹

Q: And the kon [8]?
A: 148000 M⁻¹ s⁻¹

Q: What about the Kd [9] of the same molecule?
A: 5.51 nM

Q: And the Kd [10]?
A: 27.6 nM

Q: What about the Kd [11] of the same molecule?
A: 23.3 nM

Q: And the Kd [12]?
A: 10.3 nM

Q: And the Kd [13]?
A: 9.72 nM
